Laboratory results: patent publication US10994047B2, “Peptide dendrimers comprising fibrinogen-binding peptides” (HAEMOSTATIX LIMITED, priority 2014, dated 2021)
Where no end group is shown, it is not given here.

Experiments:
[1] = biological target: T1, purified human fibrinogen (Homo sapiens, UniProt P02675+P02679); assay: Copolymerisation of peptide dendrimer with purified fibrinogen, clotting time on KC4 Delta coagulation analyser; type: biochemical
T1 sequence (P02679 27-433 limits assumed): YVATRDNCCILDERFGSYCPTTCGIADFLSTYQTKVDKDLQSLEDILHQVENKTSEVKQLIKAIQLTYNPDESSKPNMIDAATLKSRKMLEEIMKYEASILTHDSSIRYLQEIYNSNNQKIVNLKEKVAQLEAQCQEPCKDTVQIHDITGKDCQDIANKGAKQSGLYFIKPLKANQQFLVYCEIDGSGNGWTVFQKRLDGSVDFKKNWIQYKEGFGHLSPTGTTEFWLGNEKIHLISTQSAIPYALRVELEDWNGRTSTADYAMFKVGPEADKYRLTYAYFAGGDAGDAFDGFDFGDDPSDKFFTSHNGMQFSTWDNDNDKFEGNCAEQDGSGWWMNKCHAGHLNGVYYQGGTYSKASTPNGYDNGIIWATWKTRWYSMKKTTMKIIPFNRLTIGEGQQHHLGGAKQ
T1 sequence (P02675 31-491): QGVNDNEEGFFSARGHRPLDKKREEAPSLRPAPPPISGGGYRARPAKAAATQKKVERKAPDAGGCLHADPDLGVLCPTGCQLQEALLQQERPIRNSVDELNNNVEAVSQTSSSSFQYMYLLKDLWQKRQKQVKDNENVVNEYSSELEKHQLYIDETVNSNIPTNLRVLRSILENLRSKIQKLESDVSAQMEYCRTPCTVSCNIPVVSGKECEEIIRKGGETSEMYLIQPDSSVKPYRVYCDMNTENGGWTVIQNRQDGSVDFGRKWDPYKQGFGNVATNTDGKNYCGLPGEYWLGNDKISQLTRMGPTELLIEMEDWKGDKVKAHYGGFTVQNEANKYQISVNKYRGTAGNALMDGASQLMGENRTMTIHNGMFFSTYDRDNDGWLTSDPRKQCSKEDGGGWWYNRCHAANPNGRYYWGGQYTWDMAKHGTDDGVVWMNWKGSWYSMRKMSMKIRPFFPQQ
T1 sequence (P02671 20-629 partner limits assumed): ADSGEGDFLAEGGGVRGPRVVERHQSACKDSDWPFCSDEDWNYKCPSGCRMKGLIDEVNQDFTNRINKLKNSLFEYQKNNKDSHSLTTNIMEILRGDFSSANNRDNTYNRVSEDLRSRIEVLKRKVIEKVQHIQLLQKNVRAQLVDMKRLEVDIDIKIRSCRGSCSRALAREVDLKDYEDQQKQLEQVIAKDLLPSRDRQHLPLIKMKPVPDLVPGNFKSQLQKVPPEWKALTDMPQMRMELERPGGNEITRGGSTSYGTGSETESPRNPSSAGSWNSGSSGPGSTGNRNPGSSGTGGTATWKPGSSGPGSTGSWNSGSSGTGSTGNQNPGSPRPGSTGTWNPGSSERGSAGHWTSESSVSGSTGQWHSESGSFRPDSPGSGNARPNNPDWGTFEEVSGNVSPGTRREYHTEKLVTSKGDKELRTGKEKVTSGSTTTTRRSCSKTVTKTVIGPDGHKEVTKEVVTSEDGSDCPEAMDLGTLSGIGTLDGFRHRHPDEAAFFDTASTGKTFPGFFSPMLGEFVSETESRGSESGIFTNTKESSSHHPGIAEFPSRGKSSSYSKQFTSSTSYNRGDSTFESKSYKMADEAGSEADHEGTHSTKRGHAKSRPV
Experimental: The ability of Peptide Dendrimer No. 12 to polymerise fibrinogen was assessed. 30 μl of dendrimer in solution, at concentration ranging from 0.005-2 mg/ml, was added to 100 μl purified human fibrinogen at 3 mg/ml (the level of fibrinogen found in the blood). Polymerisation of fibrinogen was analysed using a Sigma Amelung KC4 Delta coagulation analyser.
The ability of Peptide Dendrimer Nos. 4, 5, 10, 11, and 12 to copolymerise with fibrinogen was assessed using the same method described in Example 2. The concentration of each dendrimer was varied from 0.005-0.5 mg/ml.
The ability of the dendrimers to copolymerise with fibrinogen was assessed using the same method described in Example 2, for a concentration of each dendrimer ranging from 0.005-0.5 mg/ml.

[2] = biological target: T2, fibrinogen in human plasma (Homo sapiens, UniProt P02675+P02679); assay: Polymerisation of fibrinogen in human plasma, clotting time; type: biochemical; details: 37° C.; for ability to polymerise fibrinogen in human plasma: 30 μL dendrimer 0.25 mg/ml added to 100 μL human plasma, FIG. 7
T2 construct: from tissue; host or cells: human plasma
T2 sequence (P02679 27-433 limits assumed): T1 sequence (P02679 27-433 limits assumed)
T2 sequence (P02675 31-491): T1 sequence (P02675 31-491)
T2 sequence (P02671 20-629 partner limits assumed): T1 sequence (P02671 20-629 partner limits assumed)
Experimental: 30 μL of each dendrimer (at a concentration of 0.25 mg/ml) was added to 100 μL human plasma at 37° C., and polymerisation of fibrinogen was determined using a Sigma Amelung KC4 Delta coagulation analyzer.

[3] = biological target: T3, fibrinogen hole 'a' and hole 'b' (Homo sapiens, UniProt P02675+P02679); details: cited from earlier work
T3 sequence (P02679 27-433 limits assumed): T1 sequence (P02679 27-433 limits assumed)
T3 sequence (P02675 31-491): T1 sequence (P02675 31-491)
T3 sequence (P02671 20-629 partner limits assumed): T1 sequence (P02671 20-629 partner limits assumed)

human fibrinogen = biological target: T4, human fibrinogen (Homo sapiens, UniProt P02675+P02679); assay: Clotting activity of dendrimers extracted from gamma-irradiated gelatin paste; type: biochemical; details: 37° C.
T4 sequence (P02679 27-433 limits assumed): T1 sequence (P02679 27-433 limits assumed)
T4 sequence (P02675 31-491): T1 sequence (P02675 31-491)
T4 sequence (P02671 20-629 partner limits assumed): T1 sequence (P02671 20-629 partner limits assumed)
Experimental: 2 ml of solution of Peptide Dendrimer No. 12 or 13 was mixed with SURGIFLO Haemostatic Matrix (a hydrated flowable gelatin matrix) to form a paste of each peptide. Each paste was sterilised by irradiation with ^60Co gamma rays at a dose of 30 kGy, and then stored at room temperature. Samples of the sterilised pastes were used for testing after storage for two and four weeks.
After storage, peptide dendrimers were extracted from each paste using 10 mM HEPES buffer. 30 μL of each extract (with a peptide concentration of about 0.25 mg/ml) was added to 100 μL of human fibrinogen at 3 mg/ml, and the ability of each dendrimer to polymerise fibrinogen (the ‘clotting’ activity) at 37° C. was determined using a Sigma Amelung KC4 Delta coagulation analyser. The polymerisation activity of non-irradiated control samples was also determined.

[4] = dendrimer 0.005-0.5 mg/ml, fibrinogen 3 mg/ml, FIG. 2 and 3

With “Peptide Dendrimer No. 9: three-branch dendrimer: two peptides GPRPFPA, third APFPRPG attached by its amino-terminal end, carboxy-terminal amide (chain 2 APFPRPG-NH2; also: three-branch dendrimer core: two GPRPFPA, APFPRPG attached by its amino-terminal end; listed as Homo sapiens)” the “ability to copolymerise with fibrinogen (clotting time)” value (shortened to “ability to copolymerise”) [1, 4] was “very active in copolymerising with fibrinogen” and the “ability to polymerise fibrinogen in human plasma” value (“ability to polymerise fibrinogen” for short) [2] was “not able to polymerise fibrinogen in human plasma”.

For “GPRPG (SEQ ID NO: 15) ((5)..(5) Carbox-terminal end may comprise an amide group; listed as Homo sapiens)”, the “binding preference for hole 'a' or hole 'b' of fibrinogen” value (“binding preference” below) [3] is given as “binds to hole ‘a’ and hole ‘b’ of fibrinogen, but with some preference for hole ‘a’”.

In the case of “Peptide Dendrimer No. 8: three-branch dendrimer: two peptides GPRPG, third APFPRPG attached by its amino-terminal end, carboxy-terminal amide (chain 2 APFPRPG-NH2; also: three-branch dendrimer core: two GPRPG, APFPRPG attached by its amino-terminal end; listed as Homo sapiens)”, the “ability to copolymerise” value [1, 4] is reported as “able to copolymerise with fibrinogen” and the “ability to polymerise fibrinogen” value [2] is reported as “not able to polymerise fibrinogen in human plasma”.

In the case of “Peptide Dendrimer No. 12: five-arm dendrimer, GPRPG- peptides; branched core with five consecutive lysine residues linked through side chains (chain KKKKK; also: five-arm dendrimer of GPRPG on core of five lysines linked through side chains, attachment places not given here)”, the “ability to copolymerise” value ([1]; dendrimer 0.005-2 mg/ml, 100 μl purified human fibrinogen 3 mg/ml, FIG. 1) is reported as “able to copolymerise with fibrinogen almost instantaneously”, the clotting ([1]; dendrimer range ~0.02-0.5 mg/ml, FIG. 2) is reported as “almost instantaneous clotting” and the “ability to polymerise fibrinogen” value [2] is reported as “able to polymerise fibrinogen in human plasma”. The “clotting time in human plasma” value ([2]; dendrimer 0.25 mg/ml, human plasma) was “less than one”, the “Clotting activity, Non-irradiated control” value (human fibrinogen; extract from gelatin paste, about 0.25 mg/ml peptide, human fibrinogen 3 mg/ml, not irradiated) was 1 s and the “Clotting activity, Storage for 2 weeks post irradiation” value (human fibrinogen; paste irradiated 30 kGy 60Co gamma, stored 2 weeks at room temperature, extract about 0.25 mg/ml, fibrinogen 3 mg/ml) was 1 s. The “Clotting activity, Storage for 4 weeks post irradiation” value (human fibrinogen; paste irradiated 30 kGy 60Co gamma, stored 4 weeks at room temperature, extract about 0.25 mg/ml, fibrinogen 3 mg/ml) was 1 s.

In the case of “GHRPY- (SEQ ID NO: 11) (listed as Homo sapiens)”, the “binding preference” value [3] is given as “binds strongly and preferentially to the ‘b’ hole of fibrinogen”.

In the case of “GPRPFPA (listed as Homo sapiens) [GPRPFPA (SEQ ID NO: 3)]”, the “binding preference” value [3] is listed as “binds with high preference for hole ‘a’ in fibrinogen”.

With “Peptide Dendrimer No. 10: three-branch dendrimer, three GPRPG peptides each attached by carboxy-terminal end to the branched core (also: three copies of chain 1 attached by C-termini to a branched core; listed as Homo sapiens)” the “clotting times compared between dendrimers” value ([1]; concentrations below ~0.125 mg/ml dendrimer, FIG. 2) was “faster clotting times than dendrimer no. 4” and the “ability to polymerise fibrinogen” value [2] was “able to polymerise fibrinogen in human plasma”.

For GPRP- (SEQ ID NO: 1), the “binding preference” value [3] is listed as “binds strongly and preferentially to the ‘a’ hole of fibrinogen”.
